This is an account of results in publication PMC7949124, “Metallo-β-lactamase domain-containing protein 2 is S-palmitoylated and exhibits acyl-CoA hydrolase activity” (The Journal of Biological Chemistry, 2020).

Changes are numbered by the printed parent chain. Numbers in names are those of the source.

Substrate in the data set: CCCCCCCCCCCCCCCC(=O)SCCNC(=O)CCNC(=O)[C@H](O)C(C)(C)COP(=O)(O)OP(=O)(O)OC[C@H]1O[C@@H](n2cnc3c(N)ncnc32)[C@H](O)[C@@H]1OP(=O)(O)O
As to the kind of experiment: radiometric acyl-CoA hydrolase assay, heptane extraction of [3H]-palmitate. It is filed as biochemical, Homo sapiens. The settings on record: 30 °C, 10 min, 0.05% DDM, labelled compound ([3H] tracer diluted with unlabelled), fitted over 0-10 μM because of substrate inhibition, n = 4. From the text: radiometric acyl-CoA hydrolase assay, heptane extraction of [3H]-palmitate on MBLAC2

B1: MBLAC2 (Homo sapiens) (protein)
chain: MSALEWYAHKSLGDGIFWIQERFYESGNRANIWLVRGSEQDVVIDTGLGLRSLPEYLYSSGLLQDREAKEDAARRPLLAVATHVHFDHSGGLYQFDRVAVHHAEAEALARGDNFETVTWLSDSEVVRTPSPGWRARQFRVQAVQPTLILQDGDVINLGDRQLTVMHMPGHSRGSICLHDKDRKILFSGDVVYDGSLIDWLPYSRISDYVGTCERLIELVDRGLVEKVLPGHFNTFGAERLFRLASNYISKAGICHKVSTFAMRSLASLALRVTNSRTSP
notes: N-terminal hexahistidine tag, C-terminal FLAG; baculovirus/Sf9; zinc metalloenzyme; partly S-palmitoylated at Cys254
The Km is the concentration of substrate that gives half-maximal velocity. As a reminder, the Vmax is the rate approached at saturating substrate. For B1, the Km is 1.9 ± 0.6 µM and the Vmax is 0.103 µmol/min/mg.

B2: MBLAC2 (Homo sapiens; C254A) (protein)
chain: B1 chain with C254A
notes: as for B1
Regarding B2, the Km amounted to 2.2 ± 0.7 µM and the Vmax worked out at 0.0879 µmol/min/mg.
